The values below are quoted from earlier work in paper PMC4448168.

This data set addresses α7 nAChR (UniProt P36544).
Chain of UniProt P36544 (P36544 23-502): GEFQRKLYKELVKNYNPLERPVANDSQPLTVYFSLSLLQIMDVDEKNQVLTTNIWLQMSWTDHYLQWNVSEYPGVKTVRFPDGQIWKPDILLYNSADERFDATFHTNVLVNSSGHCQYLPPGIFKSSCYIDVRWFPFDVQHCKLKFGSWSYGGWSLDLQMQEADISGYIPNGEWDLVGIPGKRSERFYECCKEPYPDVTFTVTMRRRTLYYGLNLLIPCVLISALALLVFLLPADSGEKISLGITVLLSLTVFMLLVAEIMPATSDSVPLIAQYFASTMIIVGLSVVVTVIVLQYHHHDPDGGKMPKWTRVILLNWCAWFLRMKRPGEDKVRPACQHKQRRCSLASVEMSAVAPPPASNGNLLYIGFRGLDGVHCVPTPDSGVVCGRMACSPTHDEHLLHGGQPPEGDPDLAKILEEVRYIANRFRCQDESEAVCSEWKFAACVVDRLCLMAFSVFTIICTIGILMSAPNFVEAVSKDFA

With α-elapitoxin-Aa2a (from UniProt P86522), the Ki was 214 µM.

For orientation: Ki means a measure of affinity in units of concentration, obtained from inhibition or displacement.
